Measurements taken from patent US20260125454A1 (SHANGHAI JUNSHI BIOSCIENCES, published 2026).

T1: Biotin-huCGRPaSA (human, not fully specified; biotin (position not given))
T1 construct: exact construct ('aSA') not explained; also called Biotin CGRPaSA; full-length (1-37) CGRP
T1 peptide: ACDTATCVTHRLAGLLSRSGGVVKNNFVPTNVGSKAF


Biological target: T1, Biotin-huCGRPaSA
Experiment: ELISA, supernatant; relative to chimeric C245
Experimental: Biotin CGRPaSA was diluted with PBS (Hyclone) to 1.0 μg/mL, and the dilution was added to a microplate at 100 μL/well. The plate was let stand in an incubator at 37° C. and coated for 90 min and then washed, and 2% BSA was added to the plate at 200 μL/well. The plate was incubated in an incubator at 37° C. for 90 min and then washed. The humanized antibodies in Table 8 and the reference antibody (chimeric antibody C245) were diluted to 1000 ng/mL with a diluent (2% BSA) with a dilution factor of not more than 10. Then, the chimeric antibodies and the reference antibody were serially 2.5-fold diluted on a sample dilution plate. All the chimeric antibody solutions and the reference antibody solution were added into plates at 100 μL/well, and the plates were incubated in a thermostat incubator at 37° C. for 60 min and washed. An HRP-conjugated goat anti-human antibody IgG (manufacturer: Sigma, Cat. No. A0170; Fc specificity) was diluted 5000-fold with 2% BSA and added into the plates at 100 μL/well, and the plates were incubated in the thermostat incubator at 37° C. for 60 min and washed. Chromogenic reagent TMB was carefully added at 100 μL/well to avoid bubbles, and the system was incubated at 37° C. for 15 min away from light for chromogenic reaction. Finally, a 2 M hydrochloric acid solution was added at 100 μL/well to stop the reaction while avoiding bubbles, and the plates were read on a microplate reader within 10 min (wavelength: 450/620 nm).

Binder | Relative binding activity, % [%]
hu158 (antibody, V domains shown, 3E5 HC-2/1A2 LC2-2) VH: QVQLVQSGAEVKKPGASVKVSCKASGYTFTDYNMHWVRQAPGQRLEWMGYISPYNGGTAYNQKFKFRVTLTVDTSSSTAYMELSSLRSEDTAVYYCAREGLGGYWGQGTLVTVSS VL: DIVLTQSPASLAVSPGQRATITCKASQNIDYDGYAYLNWYQQKPGQPPKVLIYSVFNLESGVPARFSGSGSGTDFTLTINPVEADDTANYYCQQSNEFPYTFGQGTKLEIK | 71
hu213 (antibody, V domains shown, 3H10 HC-2/1F5 LC1-1) VH: QVQLVQSGAEVKKPGASVKVSCKASGYTFTDYNMHWVRQAPGQGLEWMGYIYPYNGHTVYNQKFRNRVTLTVDTSSSTAYMELRSLRSDDTAVYYCAREGLGGYWGQGTLVTVSS VL: EIVLTQSPATLSLSPGERATLSCKASQNIDFDGYAYMNWYQQKPGQAPRVLIYSVFNLESGIPARFSGSGSGTDFTLTISSLEPEDFAVYYCQQSHEVPYTFGQGTKLEIK | 38
hu215 (antibody, V domains shown, 3H10 HC-2/1F5 LC1-3) VH: QVQLVQSGAEVKKPGASVKVSCKASGYTFTDYNMHWVRQAPGQGLEWMGYIYPYNGHTVYNQKFRNRVTLTVDTSSSTAYMELRSLRSDDTAVYYCAREGLGGYWGQGTLVTVSS VL: DIVLTQSPASLAVSPGQRATITCKASQNIDFDGYAYMNWYQQKPGQPPKVLIYSVFNLESGVPARFSGSGSGTDFTLTINPVEADDTANYYCQQSHEVPYTFGQGTKLEIK | 94
hu171 (antibody, V domains shown, 3E5 HC-3/1A2 LC2-2) VH: QVQLVQSGAEVKKPGASVKVSCKASGYTFTDYNMHWVRQAPGQGLEWMGYISPYNGGTAYNQKFKFRVTLTVDTSSSTAYMELSRLRSDDTVVYYCAREGLGGYWGQGTLVTVSS VL: DIVLTQSPASLAVSPGQRATITCKASQNIDYDGYAYLNWYQQKPGQPPKVLIYSVFNLESGVPARFSGSGSGTDFTLTINPVEADDTANYYCQQSNEFPYTFGQGTKLEIK | 63
hu3 (antibody, V domains shown, 1B2 HC-1/1A2 LC2-3) VH: QVQLVQSGAEVKKPGASVKVSCKASGYTFTDYNMHWVRQAPGQGLEWMGYIFPYNGVAVYNRKFRSRVTLTIDTSSSTAYMELRSLRSDDTAVYYCAREGLGGYWGQGTLVTVSS VL: EIVLTQSPATLSLSPGERATLSCKASQNIDYDGYAYLNWYQQKPGQAPRVLIYSVFNLESGIPARFSGSGSGTDFTLTISSLEPEDFAVYYCQQSNEFPYTFGQGTKLEIK | 41
hu176 (antibody, V domains shown, 3E5 HC-3/1F5 LC1-3) VH: QVQLVQSGAEVKKPGASVKVSCKASGYTFTDYNMHWVRQAPGQGLEWMGYISPYNGGTAYNQKFKFRVTLTVDTSSSTAYMELSRLRSDDTVVYYCAREGLGGYWGQGTLVTVSS VL: DIVLTQSPASLAVSPGQRATITCKASQNIDFDGYAYMNWYQQKPGQPPKVLIYSVFNLESGVPARFSGSGSGTDFTLTINPVEADDTANYYCQQSHEVPYTFGQGTKLEIK | 65
hu19 (antibody, V domains shown, 1B2 HC-2/1F5 LC1-2) VH: QVQLVQSGAEVKKPGASVKVSCKASGYTFTDYNMHWVRQAPGQRLEWMGYIFPYNGVAVYNRKFRSRVTLTVDTSSSTAYMELSSLRSEDTAVYYCAREGLGGYWGQGTLVTVSS VL: EIVLTQSPATLSLSPGERATLSCKASQNIDFDGYAYMNWYQHKPGQAPRVLIYSVFNLESGIPARFSGSGSGTDFTLTISSLEPEDFAVYYCQQSHEVPYTFGQGTKLEIK | 73
hu183 (antibody, V domains shown, 3E5 HC-4/1A2 LC2-1) VH: QVQLVQSGAEVKKPGASVKVSCKTSGYTFTDYNMHWVRQAPGQRLEWMGYISPYNAGTAYNQKFKFRVTLTVDTSSSTAYMELSSLRSEDTAVYYCAREGLGGYWGQGTLVTVSS VL: DIVLTQSPASLAVSPGQRATITCKASQNIDYDGYAYLNWYQQKPGQPPKVLIYSVFNLESGVPARFSGSGSGTDFTLTINPVEANDTANYYCQQSNEFPYTFGQGTKLEIK | 26
hu5 (antibody, V domains shown, 1B2 HC-1/1F5 LC1-1) VH: QVQLVQSGAEVKKPGASVKVSCKASGYTFTDYNMHWVRQAPGQGLEWMGYIFPYNGVAVYNRKFRSRVTLTIDTSSSTAYMELRSLRSDDTAVYYCAREGLGGYWGQGTLVTVSS VL: EIVLTQSPATLSLSPGERATLSCKASQNIDFDGYAYMNWYQQKPGQAPRVLIYSVFNLESGIPARFSGSGSGTDFTLTISSLEPEDFAVYYCQQSHEVPYTFGQGTKLEIK | 88
hu197 (antibody, V domains shown, 3H10 HC-1/1A2 LC2-2) VH: QVQLVQSGAEVKKPGASVKVSCKASGYTFTDYNMHWVRQAPGQGLEWMGYIYPYNGHTVYNQKFRNRVTMTVDTSSSTAYMELRSLRSDDTAVYYCAKEGLGGYWGQGTLVTVSS VL: DIVLTQSPASLAVSPGQRATITCKASQNIDYDGYAYLNWYQQKPGQPPKVLIYSVFNLESGVPARFSGSGSGTDFTLTINPVEADDTANYYCQQSNEFPYTFGQGTKLEIK | 49
hu196 (antibody, V domains shown, 3H10 HC-1/1A2 LC2-1) VH: QVQLVQSGAEVKKPGASVKVSCKASGYTFTDYNMHWVRQAPGQGLEWMGYIYPYNGHTVYNQKFRNRVTMTVDTSSSTAYMELRSLRSDDTAVYYCAKEGLGGYWGQGTLVTVSS VL: DIVLTQSPASLAVSPGQRATITCKASQNIDYDGYAYLNWYQQKPGQPPKVLIYSVFNLESGVPARFSGSGSGTDFTLTINPVEANDTANYYCQQSNEFPYTFGQGTKLEIK | 45
hu184 (antibody, V domains shown, 3E5 HC-4/1A2 LC2-2) VH: QVQLVQSGAEVKKPGASVKVSCKTSGYTFTDYNMHWVRQAPGQRLEWMGYISPYNAGTAYNQKFKFRVTLTVDTSSSTAYMELSSLRSEDTAVYYCAREGLGGYWGQGTLVTVSS VL: DIVLTQSPASLAVSPGQRATITCKASQNIDYDGYAYLNWYQQKPGQPPKVLIYSVFNLESGVPARFSGSGSGTDFTLTINPVEADDTANYYCQQSNEFPYTFGQGTKLEIK | 23
hu202 (antibody, V domains shown, 3H10 HC-1/1F5 LC1-3) VH: QVQLVQSGAEVKKPGASVKVSCKASGYTFTDYNMHWVRQAPGQGLEWMGYIYPYNGHTVYNQKFRNRVTMTVDTSSSTAYMELRSLRSDDTAVYYCAKEGLGGYWGQGTLVTVSS VL: DIVLTQSPASLAVSPGQRATITCKASQNIDFDGYAYMNWYQQKPGQPPKVLIYSVFNLESGVPARFSGSGSGTDFTLTINPVEADDTANYYCQQSHEVPYTFGQGTKLEIK | 90
hu209 (antibody, V domains shown, 3H10 HC-2/1A2 LC2-1) VH: QVQLVQSGAEVKKPGASVKVSCKASGYTFTDYNMHWVRQAPGQGLEWMGYIYPYNGHTVYNQKFRNRVTLTVDTSSSTAYMELRSLRSDDTAVYYCAREGLGGYWGQGTLVTVSS VL: DIVLTQSPASLAVSPGQRATITCKASQNIDYDGYAYLNWYQQKPGQPPKVLIYSVFNLESGVPARFSGSGSGTDFTLTINPVEANDTANYYCQQSNEFPYTFGQGTKLEIK | 64
hu6 (antibody, V domains shown, 1B2 HC-1/1F5 LC1-2) VH: QVQLVQSGAEVKKPGASVKVSCKASGYTFTDYNMHWVRQAPGQGLEWMGYIFPYNGVAVYNRKFRSRVTLTIDTSSSTAYMELRSLRSDDTAVYYCAREGLGGYWGQGTLVTVSS VL: EIVLTQSPATLSLSPGERATLSCKASQNIDFDGYAYMNWYQHKPGQAPRVLIYSVFNLESGIPARFSGSGSGTDFTLTISSLEPEDFAVYYCQQSHEVPYTFGQGTKLEIK | 93
hu18 (antibody, V domains shown, 1B2 HC-2/1F5 LC1-1) VH: QVQLVQSGAEVKKPGASVKVSCKASGYTFTDYNMHWVRQAPGQRLEWMGYIFPYNGVAVYNRKFRSRVTLTVDTSSSTAYMELSSLRSEDTAVYYCAREGLGGYWGQGTLVTVSS VL: EIVLTQSPATLSLSPGERATLSCKASQNIDFDGYAYMNWYQQKPGQAPRVLIYSVFNLESGIPARFSGSGSGTDFTLTISSLEPEDFAVYYCQQSHEVPYTFGQGTKLEIK | 67
hu170 (antibody, V domains shown, 3E5 HC-3/1A2 LC2-1) VH: QVQLVQSGAEVKKPGASVKVSCKASGYTFTDYNMHWVRQAPGQGLEWMGYISPYNGGTAYNQKFKFRVTLTVDTSSSTAYMELSRLRSDDTVVYYCAREGLGGYWGQGTLVTVSS VL: DIVLTQSPASLAVSPGQRATITCKASQNIDYDGYAYLNWYQQKPGQPPKVLIYSVFNLESGVPARFSGSGSGTDFTLTINPVEANDTANYYCQQSNEFPYTFGQGTKLEIK | 75
hu16 (antibody, V domains shown, 1B2 HC-2/1A2 LC2-3) VH: QVQLVQSGAEVKKPGASVKVSCKASGYTFTDYNMHWVRQAPGQRLEWMGYIFPYNGVAVYNRKFRSRVTLTVDTSSSTAYMELSSLRSEDTAVYYCAREGLGGYWGQGTLVTVSS VL: EIVLTQSPATLSLSPGERATLSCKASQNIDYDGYAYLNWYQQKPGQAPRVLIYSVFNLESGIPARFSGSGSGTDFTLTISSLEPEDFAVYYCQQSNEFPYTFGQGTKLEIK | 39
hu163 (antibody, V domains shown, 3E5 HC-2/1F5 LC1-3) VH: QVQLVQSGAEVKKPGASVKVSCKASGYTFTDYNMHWVRQAPGQRLEWMGYISPYNGGTAYNQKFKFRVTLTVDTSSSTAYMELSSLRSEDTAVYYCAREGLGGYWGQGTLVTVSS VL: DIVLTQSPASLAVSPGQRATITCKASQNIDFDGYAYMNWYQQKPGQPPKVLIYSVFNLESGVPARFSGSGSGTDFTLTINPVEADDTANYYCQQSHEVPYTFGQGTKLEIK | 78
